Source: PMC10786891, “Massively parallel profiling of RNA-targeting CRISPR-Cas13d”
Changes are numbered by the printed parent chain. Names and notes keep the numbering of the source.

T1: EsCas13d, nuclease-dead (Eubacterium siraeum, UniProt B0MS50, R295A;H300A;R849A;H854A)
T1 sequence: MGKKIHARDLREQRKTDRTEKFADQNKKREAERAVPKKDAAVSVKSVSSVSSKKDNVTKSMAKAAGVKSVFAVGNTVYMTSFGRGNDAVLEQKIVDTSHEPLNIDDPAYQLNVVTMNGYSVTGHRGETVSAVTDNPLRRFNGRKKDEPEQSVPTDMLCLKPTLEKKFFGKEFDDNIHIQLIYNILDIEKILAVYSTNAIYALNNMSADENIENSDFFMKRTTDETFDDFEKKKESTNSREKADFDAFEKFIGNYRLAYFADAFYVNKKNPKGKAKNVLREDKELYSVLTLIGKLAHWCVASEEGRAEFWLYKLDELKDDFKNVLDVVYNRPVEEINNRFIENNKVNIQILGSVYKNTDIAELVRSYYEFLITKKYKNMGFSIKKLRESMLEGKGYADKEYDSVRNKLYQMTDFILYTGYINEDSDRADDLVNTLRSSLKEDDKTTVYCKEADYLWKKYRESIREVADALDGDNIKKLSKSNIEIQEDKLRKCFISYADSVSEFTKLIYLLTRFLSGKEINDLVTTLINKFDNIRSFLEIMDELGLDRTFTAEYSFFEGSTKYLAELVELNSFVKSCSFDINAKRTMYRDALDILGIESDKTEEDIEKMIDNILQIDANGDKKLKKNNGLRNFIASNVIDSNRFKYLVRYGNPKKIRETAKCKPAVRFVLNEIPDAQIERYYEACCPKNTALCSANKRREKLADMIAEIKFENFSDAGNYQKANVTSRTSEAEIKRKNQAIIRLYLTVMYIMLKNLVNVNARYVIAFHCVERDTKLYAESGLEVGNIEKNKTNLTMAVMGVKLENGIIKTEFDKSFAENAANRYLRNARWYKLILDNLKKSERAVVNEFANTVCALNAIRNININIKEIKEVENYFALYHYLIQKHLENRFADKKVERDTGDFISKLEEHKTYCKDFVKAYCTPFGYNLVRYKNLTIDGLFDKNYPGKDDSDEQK

B1: target 1 insA 3' of 11,insC 3' of 3 (mixed)
RNA 1: CACCCGUGCAAAAAUGCAGGGGUCUAAAACUGAGCGGAUAACCUCUCUAUGG
RNA 2: GGGAAUGGAUCCACAUCUACGAAUUCGUACCAUAGAGAGGUAUAUCCGCUCCACCGAGAUCGGAAGAGCACACGU
B2: target 1 C4U,A14G (mixed)
RNA 1: B1 RNA 1
RNA 2: GGGAAUGGAUCCACAUCUACGAAUUCGUACCAUAGAGGGGUUAUCCGUUCACCGAGAUCGGAAGAGCACACGU
B3: target 1 insU 3' of 17,insC 3' of 8 (mixed)
RNA 1: B1 RNA 1
RNA 2: GGGAAUGGAUCCACAUCUACGAAUUCGUACCAUAGUAGAGGUUAUCCCGCUCACCGAGAUCGGAAGAGCACACGU
B4: target 1 U3A,G17U (mixed)
RNA 1: B1 RNA 1
RNA 2: B2 RNA 2 with G35U, G38A, U48C, U49A
B5: target 1 A14G,A16G (mixed)
RNA 1: B1 RNA 1
RNA 2: B2 RNA 2 with A36G, U48C
B6: target 1 insU 3' of 12,insU 3' of 4 (mixed)
RNA 1: B1 RNA 1
RNA 2: B1 RNA 2 with A42U, C51U
B7: target 1 A9U,A14G (mixed)
RNA 1: B1 RNA 1
RNA 2: B2 RNA 2 with A43U, U48C
B8: target 1 G12A,G17U (mixed)
RNA 1: B1 RNA 1
RNA 2: B2 RNA 2 with G35U, G38A, G40A, U48C
B9: target 1 insC 3' of 20,insA 3' of 12 (mixed)
RNA 1: B1 RNA 1
RNA 2: B3 RNA 2 with U33C, A34U, G35A, U36G, U42A, A44U, U45A, C46U
B10: target 1 insA 3' of 22,insU 3' of 15 (mixed)
RNA 1: B1 RNA 1
RNA 2: GGGAAUGGAUCCACAUCUACGAAUUCGUACACAUAGAGUAGGUUAUCCGCUCACCGAGAUCGGAAGAGCACACGU
B11: target 1 U10A,G15U (mixed)
RNA 1: B1 RNA 1
RNA 2: B2 RNA 2 with G37U, G38A, U42A, U48C
B12: target 1 U3C,C6G (mixed)
RNA 1: B1 RNA 1
RNA 2: B2 RNA 2 with G38A, C46G, U48C, U49C
B13: target 1 insC 3' of 20,insG 3' of 3 (mixed)
RNA 1: B1 RNA 1
RNA 2: B3 RNA 2 with U33C, A34U, G35A, U36G, C48G, G49C, C50U, U51G
B14: target 1 insU 3' of 15,insC 3' of 5 (mixed)
RNA 1: B1 RNA 1
RNA 2: B3 RNA 2 with U36A, A37G, G38U, C48G, G49C
B15: target 1 complement block 5-8 (mixed)
RNA 1: B1 RNA 1
RNA 2: B2 RNA 2 with G38A, U44A, C45G, C46G, G47C, U48C
B16: target 1 insC 3' of 20,insA 3' of 13 (mixed)
RNA 1: B1 RNA 1
RNA 2: B10 RNA 2 with A31C, C32A, A33C, U39A, A40G, G41A
B17: target 1 insC 3' of 22,insA 3' of 7 (mixed)
RNA 1: B1 RNA 1
RNA 2: B3 RNA 2 with A32C, U33A, A34U, G35A, U36G, C47A
B18: target 1 insC 3' of 20,insG 3' of 14 (mixed)
RNA 1: B1 RNA 1
RNA 2: B10 RNA 2 with A31C, C32A, A33C, U39A, A40G
B19: target 1 U3A,C22A (mixed)
RNA 1: B1 RNA 1
RNA 2: B2 RNA 2 with C30A, G38A, U48C, U49A
B20: target 1 insA 3' of 21,insA 3' of 6 (mixed)
RNA 1: B1 RNA 1
RNA 2: B3 RNA 2 with U33A, A34U, G35A, U36G, C48A
B21: target 1 insU 3' of 20,insA 3' of 13 (mixed)
RNA 1: B1 RNA 1
RNA 2: B10 RNA 2 with A31C, C32A, A33U, U39A, A40G, G41A
B22: target 1 C6G,G15A (mixed)
RNA 1: B1 RNA 1
RNA 2: B2 RNA 2 with G37A, G38A, C46G, U48C
B23: target 1 insC 3' of 11,insG 3' of 3 (mixed)
RNA 1: B1 RNA 1
RNA 2: B1 RNA 2 with A42C, C51G
B24: target 1 U10A,A18U (mixed)
RNA 1: B1 RNA 1
RNA 2: B2 RNA 2 with A34U, G38A, U42A, U48C
B25: target 1 U8A,C21A (mixed)
RNA 1: B1 RNA 1
RNA 2: B2 RNA 2 with C31A, G38A, U44A, U48C
B26: target 1 C4G,G17U (mixed)
RNA 1: B1 RNA 1
RNA 2: B2 RNA 2 with G35U, G38A, U48G
B27: target 1 insG 3' of 22 (mixed)
RNA 1: B1 RNA 1
RNA 2: GGGAAUGGAUCCACAUCUACGAAUUCGUACGCAUAGAGAGGUUAUCCGCUCACCGAGAUCGGAAGAGCACACGU
B28: target 1 insA 3' of 8 (mixed)
RNA 1: B1 RNA 1
RNA 2: GGGAAUGGAUCCACAUCUACGAAUUCGUACCAUAGAGAGGUUAUACCGCUCACCGAGAUCGGAAGAGCACACGU
B29: target 1 insG 3' of 8,insG 3' of 1 (mixed)
RNA 1: B1 RNA 1
RNA 2: B1 RNA 2 with A42U, U43A, A44U, U45G, C52A, A53G

Target: T1, EsCas13d, nuclease-dead
Test: crRNA (strand 1, pre-loaded); Mg2+; 40 mM Tris-HCl pH 7.5, 150 mM NaCl, 6 mM MgCl2, 1 mM DTT, 0.1% Tween-20, 0.2 mg/ml BSA; 25 C; 10 min per concentration, then washed
Conditions: tags: His6-TwinStrep-SUMO cleaved; N-terminal SNAP kept (SNAP-Surface 488); label: 3' end held by stalled T7 RNA polymerase

Row | Binder | Kd [nM]
1 | B1 | 13.8 ± 0.6
2 | B2 | ~60
3 | B3 | 44 ± 8
4 | B4 | 25 ± 4
5 | B5 | 34.8 ± 2.2
6 | B6 | 5.68 ± 0.27
7 | B7 | 17.7 ± 1.2
8 | B8 | 18.9 ± 1.4
9 | B9 | 9 ± 0.5
10 | B10 | 19 ± 1.8
11 | B11 | 56 ± 13
12 | B12 | 12.1 ± 0.7
13 | B13 | 8.3 ± 0.5
14 | B14 | 16.9 ± 2.2
15 | B15 | 14.7 ± 0.8
16 | B16 | 4.7 ± 0.4
17 | B17 | 17.6 ± 2.5
18 | B18 | 10.1 ± 0.8
19 | B19 | 60 ± 17
20 | B20 | 22.1 ± 2.3
21 | B21 | 8.4 ± 1.2
22 | B22 | 14.4 ± 0.8
23 | B23 | 24.9 ± 1.4
24 | B24 | 43 ± 4
25 | B25 | 55 ± 9
26 | B26 | 39 ± 12
27 | B27 | 31 ± 2.8
28 | B28 | 15.7 ± 1
29 | B29 | 13.4 ± 0.7
